Assays:
[1] = target: human CD3 (human, UniProt P07766 23-207; P04234 22-171; P09693 23-182); test: cell-based or functional assay
[2] = target: T1, human CD3e/d (human, UniProt P07766 23-126; P04234 22-105); test: SPR (Carterra LSA), mAb on chip
T1 construct: Bought soluble protein; also called hCD3e/d; human CD3/ed (Sino CT038-H2508H)
Experimental: High-throughput surface plasmon resonance (SPR) coupled kinetic experiments were performed on a Carterra LSA® instrument equipped with an HC-30M chip type (Carterra, USA). The instrument uses two microfluidic modules, a single-flow cell (SFC) and a 96 printhead, to deliver samples to the chip surface via back-and-forth cycling of a fixed sample volume. An up to 384-ligand array is generated by docking the MFC onto each of the four nested print block locations in a serial manner.
The purified mAbs were immobilized on a Carterra LSA® HC-30M chip by direct coupling. The chip surface was first activated by flowing a freshly prepared 1:1:1 activation mix of 100 mM MES pH 5.5, 100 mM S-NHS, 400 mM EDC for 7 min. mAbs diluted to 10 μg/mL in 10 mM NaOAc pH 4.25+0.01% TWEEN®20 were then injected and printed onto the chip surface simultaneously using the MFC printhead for 10 min. Finally, the chip surface was quenched by flowing 1 M ethanolamine for 7 min (to block the excess reactive esters), followed by 2 wash steps of 15 s each in 25 mM MES pH 5.5. In addition to expressed and purified mAbs, relevant benchmarks and negative control mAbs were also printed on the chip surface.
The data were analyzed using the Carterra Kinetics analysis software. Briefly, the data were referenced with the interstitial reference spots and double-referenced to a buffer cycle, and then fit globally to a 1:1 Langmuir binding model to determine their apparent association (ka) and dissociation (kd) kinetic rate constants and binding affinity constants (KD).

Sequence of human CD3 (P07766 23-207, chain 1 of 3): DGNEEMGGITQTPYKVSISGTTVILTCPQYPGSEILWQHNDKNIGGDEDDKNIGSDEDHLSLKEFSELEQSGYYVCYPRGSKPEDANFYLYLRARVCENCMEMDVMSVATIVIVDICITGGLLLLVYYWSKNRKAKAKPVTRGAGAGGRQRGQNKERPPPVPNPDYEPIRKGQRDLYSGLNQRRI
Sequence of human CD3 (P04234 22-171, chain 2 of 3): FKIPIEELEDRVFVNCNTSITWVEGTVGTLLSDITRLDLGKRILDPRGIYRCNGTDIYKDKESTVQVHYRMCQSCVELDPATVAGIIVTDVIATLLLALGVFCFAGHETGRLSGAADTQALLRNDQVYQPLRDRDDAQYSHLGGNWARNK
Sequence of human CD3 (P09693 23-182, chain 3 of 3): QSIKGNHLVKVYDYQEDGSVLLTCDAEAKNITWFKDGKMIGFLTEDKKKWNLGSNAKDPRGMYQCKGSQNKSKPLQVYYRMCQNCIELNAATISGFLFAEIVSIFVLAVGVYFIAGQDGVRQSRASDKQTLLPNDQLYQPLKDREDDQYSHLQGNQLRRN
T1 sequence (P07766 23-126, chain 1 of 2): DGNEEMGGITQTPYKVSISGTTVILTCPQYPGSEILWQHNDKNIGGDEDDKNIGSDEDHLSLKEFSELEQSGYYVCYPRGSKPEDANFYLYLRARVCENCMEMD
T1 sequence (P04234 22-105, chain 2 of 2): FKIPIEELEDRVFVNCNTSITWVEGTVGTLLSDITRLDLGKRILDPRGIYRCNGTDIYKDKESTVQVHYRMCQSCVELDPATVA

Row | Binder | CD4 EC50 (nM); CD69/CD25 on human T cells, plate-coated antibody [1] [nM] | CD8 EC50 (nM); CD69/CD25 on human T cells, plate-coated antibody [1] [nM] | Kd [2] [nM]
1 | mAb 123 (antibody, V domains shown) VH: DVQLVESGGGTVKTGGSLRLSCVASGFSFKKAWMNWVRQAPGKGLEWVGRIKKNSDDGTADYAAPVKGRFTISRDDSKRTLFLQMNSLQTEDTAVYYCTTLDSSSWFVGYYYMDVWGKGTTVTVSS VL: DIQMTQSPSSVSASVGDRVIITCRASQDINNWLAWYQQKPGKAPKLLIYTASSLQSGVPSRFSGSGSVSDFTLTIDSLQPEDFATYYCQQAHSLPITFGQGTRLEIK | 11.7 | 11.6 | 
2 | mAb 127 (antibody, V domains shown) VH: EVQLVESGGGLVKTGGSHRLSCVASGFSFKKAWMNWVRQAPGKGLEWVGRIKRNSDGGTTDYAAPVKGRFILSRDDSKNTLYLQMNSLKTEDTAVYYCTTLDSSSWYVGYYYMDVWGKGTTVTVSS VL: DIQMTQSPSSVSASVGDRVTITCRASQDINNWLAWYQQKPGKAPKILIYTASNLQSGVPSRFSGSGSGTDFTLTISTLQPEDFATYFCQQAHGLPITFGQGTRLEIK | 10.2 | 10.3 | 
3 | mAb 130 (antibody, V domains shown) VH: EVQLVESGGGLVKTGGSLRLSCVASGFSFKKAWMNWVRQAPGKGLEWVGRIKRNSDGGATDYAAPVKDRFTLSRDDSKNTLYLQMNSLKTEDTAVYYCTTLDSSSWYVGYYYMDVWGKGTTVTVSS VL: DIHMTQSPSSVSASLGDRVTFTCRASQDINNWLAWYQQRPGKAPKLLIYTASSLQSGVPSRFSGSGSGTDFTLTISSLQPEDFATYYCQQAHSLPITFGQGTRLGIK | 10.9 | 10.8 | 
4 | mAb 121 (antibody, V domains shown) VH: EVQLVESGGGLVQPGRSLRLSCATSGFTFADYTMHWVRQAPGKGLEWVSGISWNSGSIDYADSVKGRFTISRDNAKKSLYLQMNSLRAEDTALYFCAKDSSGYGHYYFYYLDVWGKGTTVTVSS VL: EIVMTQSPGTLSVSPGKRATLSCRASQSVSSNLAWYQQKPGQGPRLLIYSTSTRATGIPARFSGSGSGTEFTLTISSLQSEDSAVYYCQHYNNWPHFGQGTRLEIK | 12.3 | 12.3 | 
5 | mAb 128 (antibody, V domains shown, VH and VL only) VH: EVQLVESGGGLVQPGRSLRLSCAASGFTFDDYTMHWVRQAPGKGLEWVSGISWNSGSIGYADSVKGRFTISRDNAKNSLYLQMNSLRAEDTALYYCAKDSSGYGYYYYYSMDVWGKGTTVTVSS VL: EIVMTQSPATLSVSPGERATLSCRASQSVSSNLAWYQQKPGQAPRLLIYGASTRATGIPARFSGSGSGTEFTLTISSLQSEDFAVYYCQLYYNWPHFGQGTRLAIK |  |  | 186
6 | mAb 171 (antibody, V domains shown, VH and VL only) VH: EVQLVESGGGLVQPGRSLRLSCAASGFTFADYTMHWVRQAPGQGLEWVSGISWNSGSIDYADSVKGRFIISRDNAKKTLYLQMNSLRAEDTALYYCAKDSSGYGHYYFYYLDVWGKGTTVTVSS VL: EIVMTQSPATLSVSPGERATLSCRASQSVSSNLAWYQQKPGQAPRLLIYSTSTRATGIPARFSGSRSGTEFTLTISSLQSEDSAVYYCQQYNNWPHFGQGTRLEIK |  |  | 18.4
7 | mAb 126 (antibody, V domains shown) VH: EVQLVESGGGLVQPGRSLRLSCAASGFTFNDYTMHWVRQVPGKGLEWVSGISWNSGSIDYADSVKGRFTISRDNAKNSLYLQMNSLRAEDTALYYCAKDSSGYGYYYYYYMDVWGKGTTVTVSS VL: EIVMTQSPATLSVSPGERATLSCRASQSVSINLAWYQQKPGQAPRLLIYGASTRATGIPARFSGSGSGTEFTLTISSLQSEDFAVYYCQLYHNWPHFGQGTRLEIK | 10.2 | 11 | 
8 | mAb 128 (antibody, V domains shown) VH: EVQLVESGGGLVQPGRSLRLSCAASGFTFDDYTMHWVRQAPGKGLEWVSGISWNSGSIGYADSVKGRFTISRDNAKNSLYLQMNSLRAEDTALYYCAKDSSGYGYYYYYSMDVWGKGTTVTVSS VL: EIVMTQSPATLSVSPGERATLSCRASQSVSSNLAWYQQKPGQAPRLLIYGASTRATGIPARFSGSGSGTEFTLTISSLQSEDFAVYYCQLYYNWPHFGQGTRLAIK | 11.6 | 11.7 | 
9 | mAb 121 (antibody, V domains shown, VH and VL only) VH: EVQLVESGGGLVQPGRSLRLSCATSGFTFADYTMHWVRQAPGKGLEWVSGISWNSGSIDYADSVKGRFTISRDNAKKSLYLQMNSLRAEDTALYFCAKDSSGYGHYYFYYLDVWGKGTTVTVSS VL: EIVMTQSPGTLSVSPGKRATLSCRASQSVSSNLAWYQQKPGQGPRLLIYSTSTRATGIPARFSGSGSGTEFTLTISSLQSEDSAVYYCQHYNNWPHFGQGTRLEIK |  |  | 21
10 | mAb 160 (antibody, V domains shown, VH and VL only) VH: EVQLVESGGGLVQPGRSLRLSCAVSGFTFNDYTMHWVRQVPGKGLEWVSGISWNSGSIGYADSVKGRFTISRDNAKNSLYLQMNSLRAEDTALYFCAKDSSGYGHYYYYYMDVWGRGTTVTVSS VL: EIVMTQSPATLSVSPGERATLSCRASQSVRKNLAWYQQKPGQAPRLLIYGASTRATGIPARFSGSGSGTEFTLTISSLQSEDFAVYYCQLYNNWPHFGQGTRLEIK |  |  | 15.2
11 | mAb 162 (antibody, V domains shown, VH and VL only) VH: EVQLVESGGGLVQPGRSLRLSCAASGFTFDNYAMHWVRQAPGKGLEWVSGISWNSGSIGYADSVKGRFTISRDNAKNSLYLELNSLRAEDTALYYCAKDSSGYGYYYNYYMDVWGKGTTVTVSS VL: EIVMTQSPATLSVSPGERATLSCRASQSVRSNLAWYQQKPGQAPRLLIYGASTRATGIPAKFSGSGSGTEFTLTISSLQSEDFAVYYCQYYYNWPHFGQGTRLEIK |  |  | 19.4
12 | mAb 118 (antibody, V domains shown, VH and VL only) VH: EVQLVESGGGLVQPGRSLRLSCAASGFTFDDYTMHWVRQAPGKGLEWVSGISWNSGSIGYADSVKGRFTISRDNAKNSLYLQMNSLRAEDTALYYCSKDSSGYGYYLNYSLDVWGKGTTVTVSS VL: not shown |  |  | 101
13 | mAb 161 (antibody, V domains shown, VH and VL only) VH: EVQLVESGGGLVQPGRSLRLSCAASGITFADYTMHWVRQAPGKGLEWVSGISWNSGSIDYADSVKGRFTISRDNAKKTLYLQMNRLRAEDTALYYCAKDSSGYGHYYFYYLDVWGKGTTVTVSS VL: EIVMTQSPATLSVSPGERATLSCRASQSVSNNLAWYQQKPGQAPRLLIYSTSTRATGIPARFSGSRSGTEFTLTISSLQSEDSAVYYCQQYNNWPHFGQGTRLEIK |  |  | 24.1
14 | mAb 158 (antibody, V domains shown, VH and VL only) VH: EVQLVESGGGLVQPGRSLRLSCAASGFTFADYTMHWVRQVPGKGLEWVSGISWNSGSVDYADSVKGRFTISRDNAKKTLYLQMNSLRAEDTALYYCAKDSSGYGHYYFYYLDVWGKGTTVTVSS VL: EIVMTQSPATLSVSPGERATLSCRATQSVSSNLAWYQQKPGQAPRLLIYSTSTRATGIPARFSGSRSGTEFTLTISSLQSEDSAVYYCQQYNNWPHFGQGTRLEIK |  |  | 10.3
15 | mAb 126 (antibody, V domains shown, VH and VL only) VH: EVQLVESGGGLVQPGRSLRLSCAASGFTFNDYTMHWVRQVPGKGLEWVSGISWNSGSIDYADSVKGRFTISRDNAKNSLYLQMNSLRAEDTALYYCAKDSSGYGYYYYYYMDVWGKGTTVTVSS VL: EIVMTQSPATLSVSPGERATLSCRASQSVSINLAWYQQKPGQAPRLLIYGASTRATGIPARFSGSGSGTEFTLTISSLQSEDFAVYYCQLYHNWPHFGQGTRLEIK |  |  | 9.72
16 | mAb 170 (antibody, V domains shown, VH and VL only) VH: EVQLVESGGGLVRPGRSLRLSCAASGFTFDDYTMHWVRQAPGKGLEWVSGISWNSGSIGYADSVKGRFTISRDNAKNSLYLQMNSLRAEDTALYYCSKDSSGYGYYLNYSLDVWGKGTTVTVSS VL: not shown |  |  | 71.9
17 | mAb 140 (antibody, V domains shown, VH and VL only) VH: QVQLVESGGGVVQPGRSLRLSCAASGFTFSTYGMHWVRQAPGKGLEWVAVIWYDGSHKYYADSVKGRFTISRDNSKNTLYLQMNSLRAEDTAVYYCARTGITGTTAYFYFDYWGQGTLVTVSS VL: not shown |  |  | 635
18 | mAb 129 (antibody, V domains shown) VH: EVQLVESGGDLVKTGGSLRLSCVASGFSFKKAWMNWVRQAPGKGLEWVGRIKRNTDGGATDYAAPVKDRFTLSRDDSKNTLYLQMNSLKTEDTAVYYCTTLDSSSWYVGYYYMDVWGKGTTVTVSS VL: DIHMTQSPSSVSASLGDRVTFTCRASQDINNWLAWYQQKPGKAPRLLIYTASSLQSGVPSRFSGSGSGTDFTLTISSLQPDDFATYYCQQAHSLPITFGQGTRLGIE | 12.5 | 12.5 | 

Reference: patent US20230295310A1 (ABCELLERA BIOLOGICS, published 2023)
